# Measurements published in patent US20250154256A1 (AUGUSTA UNIVERSITY RESEARCH INSTITUTE, published 2025).
# Read-outs that look alike come from different tables or passages of the source.
# T1: mouse PD-1 (mouse, UniProt Q02242 25-167, limits assumed)
# T1 construct: Analyte in solution in the Biacore runs
# T1 sequence: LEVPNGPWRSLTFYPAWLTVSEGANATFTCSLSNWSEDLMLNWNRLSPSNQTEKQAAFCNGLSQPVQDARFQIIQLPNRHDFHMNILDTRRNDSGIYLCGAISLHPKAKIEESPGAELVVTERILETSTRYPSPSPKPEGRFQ
# B1: monoclonal antibody 5C2 (antibody, IgG1, V domains shown)
# VH: QVQLQQPGAELVKPGASVKVSCKASGYTFTSYWMHWVKQRPGQGLEWIGRIHPSDSDTNYNQKFKGKATLTVDKSSSTAYMQLSSLTSEDSAVYYCAPYGNYASGFAYWGQGTLVTVSA
# VL: DIVMTQSHKFMSTSVGDRVSITCKASQDVSTAVAWYQQKPGQSPKLLIYWASTRHTGVPDRFTGSGSGTDYTLTISSVQAEDLALYYCQQHYSTPWTFGGGTKLEIKR
# notes: the two clones are reported with different SPR values; also called 5C2 anti-PD-1 antibody
# B2: monoclonal antibody 4C12 (antibody, mouse IgG1, kappa, V domains shown)
# VH: B1 VH
# VL: B1 VL
# notes: also called 4C12 anti-PD-1 antibody
# B3: monoclonal antibody 4G9 (antibody, mouse IgG2b, kappa, V domains shown)
# VH: QIQLVQSGPELKKPGETVKISCKASGYTFTTYGMTWVKQAPGKGLKWMGWINTYSGVPTYADDFKGRFAFSLETSASTAYLQINNLKNEDTATYFCARGGRGFAYWGQGTLVTVSA
# VL: DILLTQSPAILSVSPGERVSFSCRASQSIGTSIHWYQQRTNGSPRLLIKYASESISGIPSRFSGSGSGTDFTLSINSVESEDIADYYCQQSNSWPYTFGGGTKLEIKR
# notes: also called 4G9 anti-PD-1 antibody
# Experiments:
# mouse PD-1 [1] = biological target: T1, mouse PD-1; assay: SPR (Biacore), antibody as ligand, PD-1 as analyte
# human PD-1-Fc = biological target: T2, human PD-1-Fc (human, UniProt Q15116 25-170, limits assumed); assay: ELISA, binding to human PD-1-Fc
# T2 construct: ELISA antigen
# T2 sequence (Q15116 25-170 limits assumed): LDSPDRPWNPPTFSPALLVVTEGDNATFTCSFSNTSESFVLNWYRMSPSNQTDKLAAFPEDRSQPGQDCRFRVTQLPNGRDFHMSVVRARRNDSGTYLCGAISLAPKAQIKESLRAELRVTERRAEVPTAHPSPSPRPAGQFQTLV
# human PD-1 [2] = biological target: T3, human PD-1 (human, UniProt Q15116 25-167, limits assumed); assay: SPR (Biacore), antibody as ligand, PD-1 as analyte
# T3 construct: Analyte in solution in the Biacore runs; also called programmed cell death protein 1
# T3 sequence (Q15116 25-167 limits assumed): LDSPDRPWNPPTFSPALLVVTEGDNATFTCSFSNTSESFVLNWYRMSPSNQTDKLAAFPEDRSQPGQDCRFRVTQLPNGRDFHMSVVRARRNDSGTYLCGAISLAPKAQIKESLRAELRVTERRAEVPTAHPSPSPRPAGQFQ
# human PD-1 [3] = biological target: T3, human PD-1; assay: SPR (Biacore), antibody as ligand, PD-1 as analyte; remark: listed apart in the source
# mouse PD-1 [4] = biological target: T1, mouse PD-1; assay: SPR (Biacore), antibody as ligand, PD-1 as analyte; remark: listed apart in the source
# human PD-1 [5] = biological target: T3, human PD-1; assay: SPR (Biacore), antibody as ligand, PD-1 as analyte; remark: listed apart in the source
Binder,Ka (mouse PD-1 [1]) [M⁻¹],Kd (mouse PD-1 [1]) [µM],EC50 (read off the curve) (human PD-1-Fc) [µg/mL],Ka (human PD-1 [2]) [M⁻¹],Kd (human PD-1 [2]) [µM],Ka (human PD-1 [3]) [M⁻¹],Kd (human PD-1 [3]) [µM],Ka (mouse PD-1 [4]) [M⁻¹],Kd (mouse PD-1 [4]) [µM],koff (mouse PD-1 [4]) [s⁻¹],kon (mouse PD-1 [4]) [M⁻¹ s⁻¹],Ka (human PD-1 [5]) [M⁻¹],Kd (human PD-1 [5]) [µM]
B1,1.18e+06,0.85,~1,202000,4.95,–,–,–,–,–,–,–,–
B2,–,–,–,–,–,3.14e+06,0.319,–,–,–,–,–,–
B3,–,–,~0.5,–,–,–,–,194000,5.15,0.0103,2000,952000,1.05
